# Measurements reported in article PMC7835958, “Unlike its Paralog LEDGF/p75, HRP-2 Is Dispensable for MLL-R Leukemogenesis but Important for Leukemic Cell Survival” (Cells, 2021).
# T1: MBP-LEDGF/p75_(325–530) (human, UniProt O75475 325-530)
# T1 construct: LEDGF/p75 C-terminal fragment, residues 325-530; also called LEDGF_(325–530); MBP-fused C-terminal fragment of LEDGF/p75; source: E. coli Rosetta2 (DE3), purified
# T1 sequence (looked up): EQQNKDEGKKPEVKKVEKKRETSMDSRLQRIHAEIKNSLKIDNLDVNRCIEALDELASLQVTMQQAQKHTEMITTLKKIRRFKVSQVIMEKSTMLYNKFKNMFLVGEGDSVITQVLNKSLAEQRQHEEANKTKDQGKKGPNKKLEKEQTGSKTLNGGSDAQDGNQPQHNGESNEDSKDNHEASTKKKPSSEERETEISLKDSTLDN
# T2: LEDGF/p75_(345–426) (human, UniProt O75475 345-426, 15N-labeled)
# T2 construct: also called LEDGF/p75-IBD; LEDGF/p75 IBD; source: E. coli Rosetta2 (DE3), purified
# T2 sequence (looked up): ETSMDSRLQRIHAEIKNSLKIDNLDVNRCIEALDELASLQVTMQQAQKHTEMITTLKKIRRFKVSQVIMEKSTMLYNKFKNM
# T3: HRP-2_(469–549) (human, UniProt Q7Z4V5 469-549, 15N-labeled)
# T3 construct: also called HRP-2-IBD; HRP-2 IBD; source: E. coli Rosetta2 (DE3), purified
# T3 sequence (looked up): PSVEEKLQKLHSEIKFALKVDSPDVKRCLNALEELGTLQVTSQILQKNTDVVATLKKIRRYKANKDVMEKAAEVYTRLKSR
# B1: MLL_(1–160)–GST (domain or fragment, UniProt Q03164 1-160, looked up)
# chain: MAHSCRWRFPARPGTTGGGGGGGRRGLGGAPRQRVPALLLPPGPPVGGGGPGAPPSPPAVAAAAAAAGSSGAGVPGGAAAASAASSSSASSSSSSSSSASSGPALLRVGPGFDAALQVSAAIGTNLRRFRAVFGESGGGGGSGEDEQFLGFGSDEEVRVR
# notes: MLL (MLL1, KMT2A) N-terminal fragment, residues 1-160; The printed name MLL_(1–160)–GST hints at a C-terminal GST; also called GST-tagged MLL_(1–160); GST-tagged N-terminal fragment of MLL; source: E. coli Rosetta2 (DE3), purified
# B2: synthetic MLL peptide (123–160) (peptide, UniProt Q03164 123-160, looked up)
# peptide: GTNLRRFRAVFGESGGGGGSGEDEQFLGFGSDEEVRVR
# notes: also called MLL-derived peptide; source: synthetic peptide
# Tests used:
# Conditions in all cases: both partners purified
# [1] = target: T4, Full length flag-tagged LEDGF/p75 (human, UniProt O75475 1-530); test: AlphaScreen or HTRF; out-competition: Flag-LEDGF/p75 (0.3 nM) preincubated with MLL_(1–160)–GST (10 nM) before titration of MBP-LEDGF/p75_(325–530), MBP-HRP-2_(470–552) or MBP alone
# T4 construct: LEDGF/p75, full length; also called Flag-LEDGF/p75; flag-LEDGF/p75; source: E. coli Rosetta2 (DE3), purified
# [2] = target: T1, MBP-LEDGF/p75_(325–530); test: as above
# [3] = target: T2, LEDGF/p75_(345–426); test: NMR titration; 20 µM 15N-labeled IBD (HRP-2 469–549 or LEDGF/p75 345–426) mixed with various concentrations of unlabeled synthetic MLL peptide (123–160); 15N/1H HSQC (SOFAST), 25 °C; KD from chemical shift perturbations
# [4] = target: T3, HRP-2_(469–549); test: as above
Binder,binding result [1],binding result [2],binding result [3],Kd [4]
B1,binds,binds,,
B2,,,binds,54.4 ± 2.2 µM
